Measurements as given in patent US20190382475.

Assays:
Test in all cases: LC-UV-ESI-MS of purified Fab after co-expression of two heavy and two light chains in HEK293T (chain competition); competing chains not named
[1] = target: anti c-Kit Fab heavy chain Q39K/K147D/S165R
[2] = target: anti c-Kit Fab heavy chain Q39/K147/S165D
[3] = target: anti c-Kit Fab heavy chain Q39/K147/S165 (wild type)
[4] = target: anti c-Kit Fab heavy chain Q39K/K147/S165R
[5] = target: anti c-Kit Fab heavy chain Q39D/K147/S165D
[6] = target: anti c-Kit Fab heavy chain Q39D/K147/S165
[7] = target: anti c-Kit Fab heavy chain Q39/K147D/S165R
[8] = target: anti c-Kit Fab heavy chain Q39/K147D/S165
[9] = target: anti c-Kit Fab heavy chain Q39K/K147/S165
[10] = target: anti c-Kit Fab heavy chain Q39/K147/S165R
[11] = target: anti c-Kit Fab heavy chain Q39K/K147D/S165

B1: anti c-Kit Fab light chain Q38D/Q124K/K169D (protein)
chain: DIQMTQSPSSLSASVGDRVTITCRASQSISSYLNWYQDKPGKAPKLLIYYTSRLQSGVPSRFSGSGSGTDFTLTISSLQPEDFATYYCQQGRRLWSFGGGTKVEIKRTVAAPSVFIFPPSDEKLKSGTASVVCLLNNFYPREAKVQWKVDNALQSGNSQESVTEQDSDDSTYSLSSTLTLSKADYEKHKVYACEVTHQGLSSPVTKSFNRGEC
Correct pairing (%) [1]: 100%

B2: anti c-Kit Fab light chain Q38/Q124D/K169 (protein)
chain: DIQMTQSPSSLSASVGDRVTITCRASQSISSYLNWYQQKPGKAPKLLIYYTSRLQSGVPSRFSGSGSGTDFTLTISSLQPEDFATYYCQQGRRLWSFGGGTKVEIKRTVAAPSVFIFPPSDEDLKSGTASVVCLLNNFYPREAKVQWKVDNALQSGNSQESVTEQDSKDSTYSLSSTLTLSKADYEKHKVYACEVTHQGLSSPVTKSFNRGEC
Correct pairing (%) [2]: 88% | Correct pairing (%) [3]: 91%

B3: anti c-Kit Fab light chain Q38D/Q124/K169D (protein)
chain: DIQMTQSPSSLSASVGDRVTITCRASQSISSYLNWYQDKPGKAPKLLIYYTSRLQSGVPSRFSGSGSGTDFTLTISSLQPEDFATYYCQQGRRLWSFGGGTKVEIKRTVAAPSVFIFPPSDEQLKSGTASVVCLLNNFYPREAKVQWKVDNALQSGNSQESVTEQDSDDSTYSLSSTLTLSKADYEKHKVYACEVTHQGLSSPVTKSFNRGEC
Correct pairing (%) [4]: 75%

B4: anti c-Kit Fab light chain Q38K/Q124D/K169 (protein)
chain: DIQMTQSPSSLSASVGDRVTITCRASQSISSYLNWYQKKPGKAPKLLIYYTSRLQSGVPSRFSGSGSGTDFTLTISSLQPEDFATYYCQQGRRLWSFGGGTKVEIKRTVAAPSVFIFPPSDEDLKSGTASVVCLLNNFYPREAKVQWKVDNALQSGNSQESVTEQDSKDSTYSLSSTLTLSKADYEKHKVYACEVTHQGLSSPVTKSFNRGEC
Correct pairing (%) [5]: 100% | Correct pairing (%) [6]: 93%

B5: anti c-Kit Fab light chain Q38/Q124K/K169D (protein)
chain: DIQMTQSPSSLSASVGDRVTITCRASQSISSYLNWYQQKPGKAPKLLIYYTSRLQSGVPSRFSGSGSGTDFTLTISSLQPEDFATYYCQQGRRLWSFGGGTKVEIKRTVAAPSVFIFPPSDEKLKSGTASVVCLLNNFYPREAKVQWKVDNALQSGNSQESVTEQDSDDSTYSLSSTLTLSKADYEKHKVYACEVTHQGLSSPVTKSFNRGEC
Correct pairing (%) [7]: 90%

B6: anti c-Kit Fab light chain Q38/Q124K/K169 (protein)
chain: DIQMTQSPSSLSASVGDRVTITCRASQSISSYLNWYQQKPGKAPKLLIYYTSRLQSGVPSRFSGSGSGTDFTLTISSLQPEDFATYYCQQGRRLWSFGGGTKVEIKRTVAAPSVFIFPPSDEKLKSGTASVVCLLNNFYPREAKVQWKVDNALQSGNSQESVTEQDSKDSTYSLSSTLTLSKADYEKHKVYACEVTHQGLSSPVTKSFNRGEC
Correct pairing (%) [8]: 91%

B7: anti c-Kit Fab light chain Q38D/Q124/K169 (protein)
chain: DIQMTQSPSSLSASVGDRVTITCRASQSISSYLNWYQDKPGKAPKLLIYYTSRLQSGVPSRFSGSGSGTDFTLTISSLQPEDFATYYCQQGRRLWSFGGGTKVEIKRTVAAPSVFIFPPSDEQLKSGTASVVCLLNNFYPREAKVQWKVDNALQSGNSQESVTEQDSKDSTYSLSSTLTLSKADYEKHKVYACEVTHQGLSSPVTKSFNRGEC
Correct pairing (%) [9]: 74%

B8: anti c-Kit Fab light chain Q38K/Q124/K169 (protein)
chain: DIQMTQSPSSLSASVGDRVTITCRASQSISSYLNWYQKKPGKAPKLLIYYTSRLQSGVPSRFSGSGSGTDFTLTISSLQPEDFATYYCQQGRRLWSFGGGTKVEIKRTVAAPSVFIFPPSDEQLKSGTASVVCLLNNFYPREAKVQWKVDNALQSGNSQESVTEQDSKDSTYSLSSTLTLSKADYEKHKVYACEVTHQGLSSPVTKSFNRGEC
Correct pairing (%) [5]: 95% | Correct pairing (%) [6]: 95%

B9: anti c-Kit Fab light chain Q38/Q124/K169 (wild type) (protein)
chain: DIQMTQSPSSLSASVGDRVTITCRASQSISSYLNWYQQKPGKAPKLLIYYTSRLQSGVPSRFSGSGSGTDFTLTISSLQPEDFATYYCQQGRRLWSFGGGTKVEIKRTVAAPSVFIFPPSDEQLKSGTASVVCLLNNFYPREAKVQWKVDNALQSGNSQESVTEQDSKDSTYSLSSTLTLSKADYEKHKVYACEVTHQGLSSPVTKSFNRGEC
Correct pairing (%) [2]: 87% | Correct pairing (%) [3]: 63%

B10: anti c-Kit Fab light chain Q38/Q124/K169D (protein)
chain: DIQMTQSPSSLSASVGDRVTITCRASQSISSYLNWYQQKPGKAPKLLIYYTSRLQSGVPSRFSGSGSGTDFTLTISSLQPEDFATYYCQQGRRLWSFGGGTKVEIKRTVAAPSVFIFPPSDEQLKSGTASVVCLLNNFYPREAKVQWKVDNALQSGNSQESVTEQDSDDSTYSLSSTLTLSKADYEKHKVYACEVTHQGLSSPVTKSFNRGEC
Correct pairing (%) [10]: 68%

B11: anti c-Kit Fab light chain Q38D/Q124K/K169 (protein)
chain: DIQMTQSPSSLSASVGDRVTITCRASQSISSYLNWYQDKPGKAPKLLIYYTSRLQSGVPSRFSGSGSGTDFTLTISSLQPEDFATYYCQQGRRLWSFGGGTKVEIKRTVAAPSVFIFPPSDEKLKSGTASVVCLLNNFYPREAKVQWKVDNALQSGNSQESVTEQDSKDSTYSLSSTLTLSKADYEKHKVYACEVTHQGLSSPVTKSFNRGEC
Correct pairing (%) [11]: 95%
